Results from the DeepSol protein solubility set.

Experiment: soluble on expression in E. coli; label from the status in PepcDB or PDB records
With “MGHHHHHHSHMNIPLEELQRNLQFHAFISYSGHDSFWVKNELLPNLEKEGMQICLHERNFVPGKSIVENIITCIEKSYKSIFVLSPNFVQSEWCHYELYFAHHNLFHEGSNSLILILLEPIPQYSIPSSYHKLKSLMARRTYLEWPKEKSKRGLFWANLRAAINIKLTEQAK” the “soluble on expression in E. coli” value was “soluble”.
With “MNILQNENLIIESSSFGAELTKIFSKKYDKNILWDGNKKYWGRQSPILFPIVGKLFDNETIIEENLYSMTQHGFARDMDFEIVDKGDTFVTYKLTDNESTLKKYPYSFELIINYTLNDNSIEVEWIVKNTDSKDIFFSIGGHPAFNLPFYKQNDFSKHYLEFKSKNDVEKINLNGSFTDDIIPIGKLKNLQLNPEVFKNDALIYTNIDEVSICNNDGSKYVTISMEDFPLVGIWTPYYSETNSTAPFLCIEPWYGLADSINSNKIYKDKKFINKLSKGKVFTASYNINIHLEHHHHHH” the “soluble on expression in E. coli” value was “soluble”.
For “MKRYRTLLFDVDDTILDFQAAEALALRLLFEDQNIPLTNDMKAQYKTINQGLWRAFEEGKMTRDEVVNTRFSALLKEYGYEADGALLEQKYRRFLEEGHQLIDGAFDLISNLQQQFDLYIVTNGVSHTQYKRLRDSGLFPFFKDIFVSEDTGFQKPMKEYFNYVFERIPQFSAEHTLIIGDSLTADIKGGQLAGLDTCWMNPDMKPNVPEIIPTYEIRKLEELYHILN”, the “soluble on expression in E. coli” value was “not soluble”.
With “MSLTYPVLKGAGYVLIHTPDMIVQNGSTCTVERATNPDSEFLKEVSNHIRSYEDVVNYMPNQVYIGNRRPEELRDLPMPWCEQKIEGTRNGKFGEIMPQDEFIALMQISDAFDLVKLSQEFIDEVKPKIENNYPEIAPFVGKLKGDDIEEGKELVATHIAEGLYHDGKFVGYVKRAHDVDVNLNAHTMFENLVVKASGVLSAIQMLRHSKIDPAEIDYVIECSEEACGDINQRGGGNFAKSIAEIAGLQNATGSDTRGFCAAPTHALIQAAALVKAGIHKNVMVVAGGASAKLGMNAKDHVKKGLPVLEDVVGGFAVLVSENDGVNPVIRTDLTGKHTVGTGSSPQAVMTALITSGLDRANLKITDVDVYSVEMQNPDITKPAGAGDVPEANYKMIGALAVKRGDLEKKELKDFVSNKGLPGWAPTQGHIPSGAPYIGFLIDDLTTGNRNRAMIVGKGSLFLGRMTNLFDGVSFIAERNTGVTEETSGISKDEIKKIIAESMKKLALDMLEEGHHHHHH” the “soluble on expression in E. coli” value was “soluble”.
In the case of “MSQGYAIELYFDPALENQVLKAWNVFARRQISTYLINNESRPHITLFSTTSSIDSTKLEPIIKSFSSKQEPISLSFSSIGSFSSDDNALFLSPTPSLSLIQLQLQLCEVIKKEGFEIGEEYRVDSWVPFCSVAVDVPKSRISEGFLVLRDLKLLVYGYAMDIGLVEFSPVREVFSFGLGNNLES”, the “soluble on expression in E. coli” value was “soluble”.
For “MAHHHHHHMNLDEFNELVEQRNRIEREIQENVNFLEAPENKGVGLHGKLVDEEGFPRNDIDIYSIRVARNKVICLKNDYLNVSKRIEEYLHKVHTSHPVIRVQRSKAKKEEGDDPNESPPESCTQDYDESAPGYELLIEEAKRSTFAMIDELVENSPSHKAGLRINDYIIQFGDVQKKKKKNEENEKEDADIFNRIAAYMRNNPTRIKVKILREGKIFFYFVFPNRTPNGLYIGCHLTPISVGGGSV”, the “soluble on expression in E. coli” value was “not soluble”.
For “GYDHKAIGITAKGAWEAVKRHFRESFNHDIQTTPFTCIGVGDMSGDVFGNGMLLSKQTKLIAAFDHRDIFIDPDPNIAESYTERMRLFQLPRSSWQDYDQTKLSKGGGIFSRTEKTITLSPEAAKAIGFAKQTGTPFEIISALLKAPVDLLWFGGIGTYIRATTETDAQVGDRANDALRITGEQVRAKVIGEGANLGVTQRGRIEYVLNGGRCNTDAIDNSAGVNCSDVEVNIKIVLASALRAKTLTRETRNELLKKMTPQVEQLVLRNNYLQTLALSLAESQSAADL”, the “soluble on expression in E. coli” value was “not soluble”.
For “MGKQLESRTIPPYEPKAGEEYMSPEQLAHFRKILEYQRAELSMEIDRAVHVMQEESTIFADPADRATQESDMALELRSRDRERKLIKKIDEIFTKIDSGEYGYCEKCGIEIGLKRLEARPTASLCIDCKTLDEIRERQMAK”, the “soluble on expression in E. coli” value was “not soluble”.
With “MQNQYFTVQENYKERFYQIPKVFFTSENYKNLTNDMKIAYAILRDRLNLSIKNSWVDEDGNIYFVYSNEKLMEILNCKKEKLTKIKKGLENDGLLIQKRRGLNKPNILYLMKPIVTERDIYKIEKEENDVEPYGEKEVRKSNVQKFENRTSRSSKIERPEVRKSNTNDTDFNDIDFNDTENNDMNDLNDIKYKNEISNHSNHSNQFTHNFDDKEMLLQEFPEQLTNYLLKYDYRDLEIIKAVILKAKKSFNSRHEDMHYMLEDIEDEILTSLKRLKKAIHDRGVKGQKETIKSMQAYLMQTILTELEETHALYMRRKNMKQYNIFNQ” the “soluble on expression in E. coli” value was “soluble”.
In the case of “MGSDKIHHHHHHMSGQLHKMWYFPHMNQHEATVTDGDELQQFIAEAIALVGGVRALASIAGVSERTVYAWKNGERFPSRTNLNRLSEHLEHLSRQGYSPSAPQPHWRALRERMPGSYAPQQPDDTDRLTEEFVFVDKAEARPSAGGGSLETSARAETRYAFRLDWVLQKTPTSEGLRMMEVAGRSMENTLHNGDLVLVNERDVHLVEDRVYVVRVHDEIYVKRFARTPGCYHFRGDNRELAYQDISIDPRDENLDWEVIGRVLWAGKEL”, the “soluble on expression in E. coli” value was “not soluble”.
In the case of “MAHHHHHHMVSGFVEFEILRGKNYPQTEDDPNPCTTQVTVSVVDALSGAVLSRAQLSSIQQNSNAPFYNDTLNFRVEDAPEDVCLSISVSEHSRQKIPFVLFYGKQIIGLSKLKAKQRFVIPLFSGEEGTQQVEIGADTLDLESSGKVPFLSARIQFTKDKVFDKTDPYSDVDVSGKGLSFDGKNQLVPEGTQYVWLRLKSDKKWTNSFQYELSVAWRSRAPLEAENQGNTKSRKGTTGGMAAISAEPDSARTLGDIIIKKWCCRRTHQVLTRVCITAEKYGNKVTDLTFTPKEEVEFRTNKKERCVFLEQICKKRLEDACSNCLRQWLNRLWILFVTGVDSDPAEARALSYEVRKAVHDAQFTEADAIILQACLLFSFIPSLKYEVCQALSESDYQAAQSEKKIEVGALESPQCRVTPSQEMFTRVFISFVGSLLDTLTEAEIAKAAAEFKPAIWDAQQRIAKGAKSTIGSCKKKYEGSIFKGTGIHIDHLDKLGRRKQVPKFV”, the “soluble on expression in E. coli” value was “soluble”.
For “MNNSRLFRLSRIVIALTAASGMMVNTANAKEEAKAATQYTQQVNQNYAKSLPFSDRQDFDDAQRGFIAPLLDEGILRDANGKVYYRADDYKFDINAAAPETVNPSLWRQSQINGISGLFKVTDKMYQVRGQDISNITFVEGEKGIIVIDPLVTPPAAKAALDLYFQHRPQKPIVAVIYTHSHTDHYGGVKGIISEADVKSGKVQVIAPAGFMDEAISENVLAGNIMSRRALYSYGLLLPHNAQGNVGNGLGVTLATGDPSIIAPTKTIVRTGEKMIIDGLEFDFLMTPGSEAPAEMHFYIPALKALCTAENATHTLHNFYTLRGAKTRDTSKWTEYLNETLDMWGNDAEVLFMPHTWPVWGNKHINDYIGKYRDTIKYIHDQTLHLANQGYTMNEIGDMIKLPPALANNWASRGYYGSVSHNARAVYNFYLGYYDGNPANLHPYGQVEMGKRYVQALGGSARVINLAQEANKQGDYRWSAELLKQVIAANPGDQVAKNLQANNFEQLGYQAESATWRGFYLTGAKELREGVHKFSHGTTGSPDTIRGMSVEMLFDFMAVRLDSAKAAGKNISLNFNMSNGDNLNLTLNDSVLNYRKTLQPQADASFYISREDLHAVLTGQAKMADLVKAKKAKIIGNGAKLEEIIACLDNFDLWVNIVTPN”, the “soluble on expression in E. coli” value was “soluble”.
In the case of “MGSMRICIFMARGLEGCGVTKFSLEQRDWFIKNGHEVTLVYAKDKSFTRTSSHDHKSFSIPVILAKEYDKALKLVNDCDILIINSVPATSVQEATINNYKKLLDNIKPSIRVVVYQHDHSVLSLRRNLGLEETVRRADVIFSHSDNGDFNKVLMKEWYPETVSLFDDIEEAPTVYNFQPPMDIVKVRSTYWKDVSEINMNINRWIGRTTTWKGFYQMFDFHEKFLKPAGKSTVMEGLERSPAFIAIKEKGIPYEYYGNREIDKMNLAPNQPAQILDCYINSEMLERMSKSGFGYQLSKLNQKYLQRSLEYTHLELGACGTIPVFWKSTGENLKFRVDNTPLTSHDSGIIWFDENDMESTFERIKELSSDRALYDREREKAYEFLYQHQDSSFCFKEQFDIITK”, the “soluble on expression in E. coli” value was “soluble”.
In the case of “MKCTKCGKPASVKLRHYNIKLCKEHFNEFIEQRVEKAIKKFKMFGRNSKILIAVSGGKDSVSLWHMLKKLGYEVDALFIRAGKSGMVQKAQEIVEKNAELLNTKLHIVDATEYFGGLSTQEISIMLRRPVCSICGVVRRYLMNKFAYENGYDVVVTGHNLNDEASVLLGNILHWQEGYLERQWPLLPKTHEKLVPKAKPLVLNYEEDIKLYATLNEIPHLEMACPFSVGATSLVYKKILRELEEEQPGITLNFYLGFLKRKKEPKFEVEGLRECKECGYPTTAEVCSFCRLRKQVEKRKNKTPA”, the “soluble on expression in E. coli” value was “soluble”.
